Data: US20240398942A1 (CHIA TAI TIANQING PHARMACEUTICAL GROUP, published 2024)
Numbering of substitutions follows the chain as printed. Blank lines part the entries; values can stand above or below the binder they belong to.

Experiments:
[1] = molecular target: T1, human CD40-Fc protein (human, biotinylated (sites not given) in the capture ELISA and the benchmark blocking ELISA; not biotinylated in the ligand blocking ELISA); assay: capture ELISA: antibody captured on coated goat anti-human IgG F(ab')2, biotinylated human CD40-Fc 1.15 nM, streptavidin-HRP, OD(450-630)
T1 construct: also called biotinylated human CD40-Fc
T1 sequence (chain, as listed by the source limits assumed): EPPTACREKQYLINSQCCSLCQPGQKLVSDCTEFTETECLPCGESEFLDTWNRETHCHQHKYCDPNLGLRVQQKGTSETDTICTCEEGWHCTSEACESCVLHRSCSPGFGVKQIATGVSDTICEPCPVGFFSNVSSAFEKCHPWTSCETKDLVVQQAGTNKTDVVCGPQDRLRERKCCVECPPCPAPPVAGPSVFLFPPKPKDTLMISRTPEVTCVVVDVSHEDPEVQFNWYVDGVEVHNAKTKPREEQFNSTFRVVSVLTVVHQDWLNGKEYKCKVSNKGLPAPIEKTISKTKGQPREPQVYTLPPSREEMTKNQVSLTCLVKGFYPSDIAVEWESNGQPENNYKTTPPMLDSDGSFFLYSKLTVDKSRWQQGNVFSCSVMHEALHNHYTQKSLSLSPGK
Protocol: The plate was washed once with a washing buffer (PBS+0.05% v/v of Tween-20, PBST) and then blocked with 200 μL/well blocking buffer (PBST containing 5% w/v of skim milk) for 2 h at 37° C. The plate was washed 4 times, and the anti-CD40 antibody of the present application, BM1, BM2, and a negative control hIgG (human immunoglobulin for intravenous injection (pH 4), Hualan Biological Engineering Inc.) serially 5-fold diluted from 66.7 nM in a PBST containing 2.5% w/v of skim milk was added at 100 μL per well. The plate was incubated for 40 min at 37° C. and washed 4 times. A biotinylated human CD40-Fc protein (amino acid residues 21-193 of SEQ ID NO: 30 linked to the N terminus of amino acid residues 99-330 of SEQ ID NO: 28, dissolved in PBST containing 2.5% w/v of skim milk at a concentration of 1.15 nM) was added at 100 μL/well to a 96-well plate coated with the anti-CD40 antibody. The plate was incubated at 37° C. for 40 min and washed 4 times. An HRP-labeled streptavidin (diluted at 1:10000 in PBST, Jackson Immuno Research, Cat. No. 016-030-084) was added at 100 μL/well, and the plate was incubated at 37° C. for another 40 min. After the last wash, 100 μL/well of ELISA substrate TMB (Innoreagents, Cat. No. TMB-S-002) was added and the plate was incubated at room temperature. After 3-10 min, the reaction was stopped by adding 1 M H₂SO₄ at 50 µL/well, and the absorbance of each well was read on a microplate reader using the dual wavelength mode (TMB detection wavelength: 450 nm, reference wavelength: 630 nm). Curves of OD(450-630) values vs. antibody concentration were plotted. Data were analyzed using Graphpad Prism software, and EC₅₀ values were obtained.

[2] = molecular target: T2, cynomolgus monkey CD40-his protein (Acro biosystems, Cat. No. CD0-C52H6) (cynomolgus monkey, UniProt G7PG38 21-193); assay: SPR (Biacore T200), antibody captured on anti-human IgG chip, CD40-his as analyte, 1:1 fit
T2 construct: Bought protein; not shown: His tag
Text: (§1) Briefly, a goat anti-human IgG (GE Healthcare, Cat. No. BR100839, human antibody capture kit) was covalently linked to a CM5 chip (GE Healthcare, Cat. No. BR100530, carboxymethylated dextran-coated chip) via the primary amine group using a standard amine coupling kit supplied by Biacore (GE Healthcare, Pittsburgh, PA, USA). Unreacted portions on the biosensor surface were blocked with ethanolamine. Then, the anti-CD40 antibody of the present application and two benchmark antibodies (BM1 (dacetuzumab, Genentech Inc., also referred to CD40-BM1, prepared in-house; the heavy and light chain amino acid sequences are set forth in SEQ ID NOs: 40 and 41, respectively) and BM2 (selicrelumab, Abgenix Inc., also referred to CD40-BM2, prepared in-house; the heavy and light chain amino acid sequences are set forth in SEQ ID NOS: 42 and 43, respectively)) at a concentration of 66.67 nM were directed through the chip at a flow rate of 10 μL/min. Then, serially diluted recombinant human CD40-his (Acro biosystems, Cat. No. CD0-H5228, serially 2-fold diluted from 80 nM in HBS-EP⁺ buffer (supplied by Biacore)) or cynomolgus monkey CD40-his protein (Acro biosystems, Cat. No. CD0-C52H6, serially 2-fold diluted from 80 nM in HBS-EP⁺ buffer (supplied by Biacore)) was directed through the chip at a flow rate of 30 μL/min. The antigen-antibody binding kinetics was tracked for 2 min and the dissociation kinetics was tracked for 10 min. The association and dissociation curves were fitted to a 1:1 Langmuir binding model using BIAcore evaluation software. KD, Kₐ, and Kd values were determined.

[3] = molecular target: T3, recombinant human CD40-his (Acro biosystems, Cat. No. CD0-H5228) (human, UniProt P25942 21-193); assay: as above
T3 construct: Bought protein; also called human CD40-his protein; not shown: His tag
T3 sequence (P25942 21-193 limits assumed): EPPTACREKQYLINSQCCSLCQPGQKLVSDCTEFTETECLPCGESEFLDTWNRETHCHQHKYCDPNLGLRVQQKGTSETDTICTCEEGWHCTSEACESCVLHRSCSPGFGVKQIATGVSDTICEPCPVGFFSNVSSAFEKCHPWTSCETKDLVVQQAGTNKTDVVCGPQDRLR
Text: as §1

[4] = molecular target: T3, recombinant human CD40-his (Acro …); assay: BLI (Octet RED 96), antibody captured on AHC sensor, human CD40-his as analyte, 1:1 fit
Protocol: (§2) After six days of culture in a shake flask, the cell supernatant containing the humanized antibodies huC1H1-V1 to huC1H1-V4 was harvested and the binding affinity of the antibodies to human CD40 was determined on an Octet system (Fortebio, Octet RED 96) according to the following procedures. Briefly, an anti-human IgG Fc capture (AHC) biosensor (from ForteBio) was pre-soaked in a 10 mM glycine solution (pH 1.5) for 3 s, and then soaked in a running buffer (PBST containing 0.5% w/v of BSA) for 3 s. The pre-soaking and soaking procedures were repeated 3 times. Then, the sensor was soaked in the cell supernatant containing the humanized anti-CD40 antibody, chimeric antibody C1H1 dissolved in HBS-EP⁺ buffer at a concentration of 5 μg/mL, or the benchmark dissolved in HBS-EP⁺ buffer at a concentration of 5 μg/mL for 120 s, and then soaked in the running buffer for 5 min. The new baseline was run in the running buffer for 180 s. The sensor was then soaked for 120 s in human CD40-his protein (Acro biosystems, Cat. No. CD0-H5228) 2-fold serially diluted from 40 nM in the running buffer and for 10 min in the running buffer […]. Finally, the sensor was pre-soaked in a 10 mM glycine solution (pH 1.5) for 3 s, and then soaked in the running buffer for 3 s. The pre-soaking and soaking procedures were repeated 3 times. The association and dissociation curves were fitted to a 1:1 Langmuir binding model using ForteBio Data Analysis 8.1.

[5] = molecular target: T3, recombinant human CD40-his (Acro …); assay: BLI (Octet RED 96), antibody captured from cell supernatant on AHC sensor, human CD40-his as analyte, 1:1 fit
Protocol: as §2

EC50 [1]: 0.628 nM
Kd [2]: 9.89 nM
koff [2]: 0.00616 s⁻¹
kon [2]: 623000 M⁻¹ s⁻¹
Kd [3]: 8.87 nM
koff [3]: 0.00656 s⁻¹
kon [3]: 739000 M⁻¹ s⁻¹
B1: BM1 (dacetuzumab) (antibody, human IgG1, kappa, V domains shown)
VH: EVQLVESGGGLVQPGGSLRLSCAASGYSFTGYYIHWVRQAPGKGLEWVARVIPNAGGTSYNQKFKGRFTLSVDNSKNTAYLQMNSLRAEDTAVYYCAREGIYWWGQGTLVTVSS
VL: DIQMTQSPSSLSASVGDRVTITCRSSQSLVHSNGNTFLHWYQQKPGKAPKLLIYTVSNRFSGVPSRFSGSGSGTDFTLTISSLQPEDFATYFCSQTTHVPWTFGQGTKVEIKR
notes: Benchmark antibody, prepared in-house; also called CD40-BM1; benchmark

Kd [2]: 1.06 nM
koff [2]: 0.00148 s⁻¹
kon [2]: 1.39e+06 M⁻¹ s⁻¹
Kd [3]: 0.861 nM
koff [3]: 0.00157 s⁻¹
kon [3]: 1.82e+06 M⁻¹ s⁻¹
Kd [4]: 0.633 nM
koff [4]: 0.000929 s⁻¹
kon [4]: 1.47e+06 M⁻¹ s⁻¹
B2: chimeric antibody C1H1 (antibody, human IgG1, kappa, V domains shown)
VH: EVKLVESGGGLVKPGASLKLSCAASGFTFSNYGISWVRQTSDKRLEWVASISSGGDNTYYPDNVKGRFTISRENAKNTLYLQMSSLKSEDTALYYCARAGEKAMDYWGQGTSVTVSS
VL: DIVLTQSPVTLSVTPGDSVSLSCRASQTINNNLHWYQQKSHESPRLLIKYASQSISGIPSRFSGSGSGTDFTLSINSVETEDFGIYFCQQFSSWPLTFGAGTKLELKR
notes: also called Chimeric C1H1

Kd [5]: 0.904 nM
koff [5]: 0.00128 s⁻¹
kon [5]: 1.41e+06 M⁻¹ s⁻¹
B3: humanized antibody huC1H1-V1 (antibody, human IgG2, kappa, V domains shown)
VH: EVQLVESGGGLVKPGGSLRLSCAASGFTFSNYGISWVRQAPGKGLEWVASISSGGDNTYYPDNVKGRFTISRDNAKNSLYLQMNSLRAEDTAVYYCARAGEKAMDYWGQGTLVTVSS
VL: EIVLTQSPATLSLSPGERATLSCRASQTINNNLHWYQQKPGQAPRLLIKYASQSISGIPARFSGSGSGTDFTLTISSLEPEDFAVYFCQQFSSWPLTFGGGTKVEIKR
notes: Human IgG2 / kappa

Kd [5]: 0.596 nM
koff [5]: 0.000981 s⁻¹
kon [5]: 1.65e+06 M⁻¹ s⁻¹
B4: humanized antibody huC1H1-V2 (antibody, human IgG2, kappa, V domains shown)
VH: B3 VH with A49S
VL: B3 VL
notes: Human IgG2 / kappa

EC50 [1]: 1.36 nM
Kd [4]: 1.12 nM
koff [4]: 0.000979 s⁻¹
kon [4]: 874000 M⁻¹ s⁻¹
B5: BM2 (selicrelumab) (antibody, human IgG2, kappa, V domains shown)
VH: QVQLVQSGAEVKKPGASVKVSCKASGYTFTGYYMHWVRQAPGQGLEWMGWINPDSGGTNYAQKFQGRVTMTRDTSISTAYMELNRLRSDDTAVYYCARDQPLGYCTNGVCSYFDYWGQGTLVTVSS
VL: DIQMTQSPSSVSASVGDRVTITCRASQGIYSWLAWYQQKPGKAPNLLIYTASTLQSGVPSRFSGSGSGTDFTLTISSLQPEDFATYYCQQANIFPLTFGGGTKVEIKR
notes: Benchmark antibody, prepared in-house; also called CD40-BM2; benchmark
